Molecular target: RTEF-1 (TEAD4) (Homo sapiens) (UniProt Q15561)
Experiment: cell_activity

Chain of RTEF-1 (TEAD4) (Homo sapiens) (Q15561 other isoform, or with tags, fused parts or gaps): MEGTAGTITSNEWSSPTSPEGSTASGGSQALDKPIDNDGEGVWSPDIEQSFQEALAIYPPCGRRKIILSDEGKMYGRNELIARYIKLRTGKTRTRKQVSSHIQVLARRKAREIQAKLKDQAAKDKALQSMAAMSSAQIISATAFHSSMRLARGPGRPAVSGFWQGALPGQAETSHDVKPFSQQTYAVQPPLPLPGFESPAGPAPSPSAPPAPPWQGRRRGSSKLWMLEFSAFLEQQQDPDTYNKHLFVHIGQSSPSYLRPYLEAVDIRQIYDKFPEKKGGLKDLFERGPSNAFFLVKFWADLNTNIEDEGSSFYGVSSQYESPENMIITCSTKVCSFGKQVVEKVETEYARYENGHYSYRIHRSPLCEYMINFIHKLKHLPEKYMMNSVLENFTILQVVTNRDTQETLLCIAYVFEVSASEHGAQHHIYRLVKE

**Q.** Which activity (luciferase in BAEC) does the source give for FGFR1 0.15 kb promoter (-48/+94) here?
**A.** Its activity is over 3 fold.

**Q.** With VEGF 0.35 promoter (-194/+157) as the substance, how does the activity (luciferase, +/-0.3, 2.7 +/-0.2 fold in hypoxia) read?
**A.** The activity was 2.2 fold.
